Measurements as given in publication PMC8955606 (Toxins, 2022).
Substitutions are numbered along the chain they refer to.

Experiments:
Conditions in all cases: both partners purified
[1] = molecular target: Protective Antigen PA83 (83 kDa) of Bacillus anthracis (Bacillus anthracis, strain of …, UniProt P13423); test: SPR
[2] = molecular target: T1, PA83 region YTVDVKNKRTFLSPWI (domain I) (Bacillus anthracis); test: peptide or protein array
T1 chain: YTVDVKNKRTFLSPWI

[3] = molecular target: T2, PA83 peptide PLYISNPNY (domain IV) (Bacillus anthracis); test: peptide or protein array
T2 chain: PLYISNPNY

Sequence of Protective Antigen PA83 (83 kDa) of Bacillus anthracis (P13423 whole entry, looked up): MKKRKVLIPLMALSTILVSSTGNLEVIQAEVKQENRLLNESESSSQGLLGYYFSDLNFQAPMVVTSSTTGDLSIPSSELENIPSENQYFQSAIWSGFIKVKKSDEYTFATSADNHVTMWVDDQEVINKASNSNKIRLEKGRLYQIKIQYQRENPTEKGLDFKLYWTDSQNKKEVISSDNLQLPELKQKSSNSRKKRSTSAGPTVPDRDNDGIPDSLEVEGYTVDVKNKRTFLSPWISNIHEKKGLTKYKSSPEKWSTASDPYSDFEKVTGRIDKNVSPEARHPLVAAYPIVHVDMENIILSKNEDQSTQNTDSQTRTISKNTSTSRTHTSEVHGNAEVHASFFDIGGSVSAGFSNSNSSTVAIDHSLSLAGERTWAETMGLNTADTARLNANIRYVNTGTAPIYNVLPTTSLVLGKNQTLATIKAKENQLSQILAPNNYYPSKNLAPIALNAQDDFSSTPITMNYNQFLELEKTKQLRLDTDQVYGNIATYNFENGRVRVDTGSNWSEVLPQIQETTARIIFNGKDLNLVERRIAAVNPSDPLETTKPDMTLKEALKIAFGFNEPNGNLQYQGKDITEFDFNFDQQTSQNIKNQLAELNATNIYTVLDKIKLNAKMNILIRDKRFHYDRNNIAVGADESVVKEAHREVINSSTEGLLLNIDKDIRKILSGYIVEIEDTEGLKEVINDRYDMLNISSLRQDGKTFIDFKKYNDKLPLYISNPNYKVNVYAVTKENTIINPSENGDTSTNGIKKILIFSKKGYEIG

B1: 35PA83 6.20 G1 (antibody, V domains shown)
VH: QVQLQESGPGLVKPSETLSLTCTVSGDSISGGYYWGWIRQSPGKGLEWIGLIYGSTADTRYNPSLKGRVTISKDTSKNQFSLKLSSVTAADTAVYYCARSGYNFWSGEYYGLDSWGQGTLVTVSS
VL: AIQLTQSPSSLSAYVGDRVTITCHASQGINSWLAWYQQKPGKAPKLLIYKASSLLSGVPSRFSGSGSGTDFTLTISSLQSEDFATYYCLQYDSAPLAFGPGTKLEIK
notes: also called mutant that combined the 10 selected mutations; source: expressed and purified by Proteogenix
Work on B1 yielded a Kd [1] of 0.316 nM.

B2: 35PA83 6.20 IgG1 (GMP batch) (antibody, V domains shown)
VH: B1 VH with V12L, T23A, G36S, F80L, K83Q, S85R, T119A, L120V
VL: B1 VL with R18K, F71Y, T85S, E105D
notes: also called IgG 35PA83 6.20; 35PA83 6.20 mAb; source: rat YB2/0-E cell line (LFB), GMP conditions
B2: binds [2]; binds [3].

B3: 35PA83 6.20 (parental antibody of the super-humanization) (antibody, V domains shown)
VH: B1 VH with V12L, T23A, G36S, F80L, K83Q, S85R, T119A, L120V
VL: B1 VL with R18K, F71Y, T85S, E105D
notes: also called the parental antibody; 35PA80 6.20
Binder B3 has a Kd [1] of 0.18 nM.
